Experimental data as given in PMC9359175.

Assays:
Assay in all cases: ITC; […]; 298 K; 20 mM HEPES pH 7.5, 150 mM NaCl; […]
[1] = target: 5HB-H1 (SARS-CoV-2 5-helix bundle, longest construct) (SARS-CoV-2) (UniProt P0DTC2)
[2] = target: 5HB-H3 (SARS-CoV-2 5-helix bundle, truncated construct) (SARS-CoV-2) (UniProt P0DTC2)
[3] = target: 5HB-H4 (SARS-CoV-2 5-helix bundle, shortest construct) (SARS-CoV-2) (UniProt P0DTC2)

Q: Which Kd [1] does the source give for “HR2P, 36-mer peptide derived from SARS-CoV-2 S HR2 (D1168-L1203)” here?
A: Its Kd is 9 nM.

Q: And the Kd [2]?
A: The Kd was 18.4 nM.

Q: What about the Kd [3] of the same substance?
A: The Kd was 446 nM.
